± gives the uncertainty stated by the source.
B1: Bromodomain adjacent to zinc finger domain protein 2B, residues 1927 to 1982; numbered along this chain, Q9UIF8 (parent)
chain: KSIMKVYCQICRKGDNEELLLLCDGCDKGCHTYCHRPKITTIPDGDWFCPACIAKA

Variants of: B1
Test: abundance fitness (aPCA) (normalised: wild type 0, dead -1); higher = more abundant; growth selection in yeast, the domain comes from the species named
Settings: Homo sapiens

Variant	abundance fitness
KSIMKVYCQICRKGDNEELLLLCDGCDKGCHTYCHYPKITTIPDGDWFCPACIAKA [R36Y]	-0.252 ± 0.12
KSIMKVYCQICRKGDNEELLLLCDGCDKGCHTYCHQPKITTIPDGDWFCPACIAKA [R36Q]	-0.1 ± 0.12
KSIMKVYCQICRKGDNEELLLLCDGCDKGCHTYCHTPKITTIPDGDWFCPACIAKA [R36T]	0.078 ± 0.11
KSIMKVYCQICRKGDNEELLLLCDGCDKGCHTYCHCPKITTIPDGDWFCPACIAKA [R36C]	0.008 ± 0.12
KSIMKVYCQICRKGDNEELLLLCDGCDKGCHTYCHKPKITTIPDGDWFCPACIAKA [R36K]	-0.168 ± 0.13
KSIMKVYCQICRKGDNEELLLLCDGCDKGCHTYCHDPKITTIPDGDWFCPACIAKA [R36D]	-0.03 ± 0.11
KSIMKVYCQICRKGDNEELLLLCDGCDKGCHTYCHVPKITTIPDGDWFCPACIAKA [R36V]	0.053 ± 0.07
KSIMKVYCQICRKGDNEELLLLCDGCDKGCHTYCHEPKITTIPDGDWFCPACIAKA [R36E]	0.058 ± 0.1
KSIMKVYCQICRKGDNEELLLLCDGCDKGCHTYCHFPKITTIPDGDWFCPACIAKA [R36F]	-0.154 ± 0.12
KSIMKVYCQICRKGDNEELLLLCDGCDKGCHTYCHIPKITTIPDGDWFCPACIAKA [R36I]	-0.175 ± 0.14
KSIMKVYCQICRKGDNEELLLLCDGCDKGCHTYCHLPKITTIPDGDWFCPACIAKA [R36L]	0.06 ± 0.081
KSIMKVYCQICRKGDNEELLLLCDGCDKGCHTYYHRPKITTIPDGDWFCPACIAKA [C34Y]	-0.659 ± 0.15
KSIMKVYCQICRKGDNEELLLLCDGCDKGCHTYCHRWKITTIPDGDWFCPACIAKA [P37W]	-0.31 ± 0.1
KSIMKVYCQICRKGDNEELLLLCDGCDKGCHTYCHRMKITTIPDGDWFCPACIAKA [P37M]	-0.227 ± 0.094
KSIMKVYCQICRKGDNEELLLLCDGCDKGCHTYCHRYKITTIPDGDWFCPACIAKA [P37Y]	-0.602 ± 0.15
KSIMKVYCQICRKGDNEELLLLCDGCDKGCHTYCHRGKITTIPDGDWFCPACIAKA [P37G]	-0.161 ± 0.098
KSIMKVYCQICRKGDNEELLLLCDGCDKGCHTYCHRCKITTIPDGDWFCPACIAKA [P37C]	-0.32 ± 0.11
KSIMKVYCQICRKGDNEELLLLCDGCDKGCHTYCHRVKITTIPDGDWFCPACIAKA [P37V]	-0.228 ± 0.1
KSIMKVYCQICRKGDNEELLLLCDGCDKGCHTYCHRRKITTIPDGDWFCPACIAKA [P37R]	-0.227 ± 0.071
KSIMKVYCQICRKGDNEELLLLCDGCDKGCHTYCHRQKITTIPDGDWFCPACIAKA [P37Q]	-0.239 ± 0.1
KSIMKVYCQICRKGDNEELLLLCDGCDKGCHTYCHRHKITTIPDGDWFCPACIAKA [P37H]	-0.188 ± 0.11
KSIMKVYCQICRKGDNEELLLLCDGCDKGCHTYCHRFKITTIPDGDWFCPACIAKA [P37F]	-0.333 ± 0.12
KSIMKVYCQICRKGDNEELLLLCDGCDKGCHTYCHREKITTIPDGDWFCPACIAKA [P37E]	0.026 ± 0.14
KSIMKVYCQICRKGDNEELLLLCDGCDKGCHTYCHRTKITTIPDGDWFCPACIAKA [P37T]	-0.148 ± 0.099

Variant	abundance fitness
KSIMKVYCQICRKGDNEELLLLCDGCDKGCHTYCHRNKITTIPDGDWFCPACIAKA [P37N]	-0.166 ± 0.13
KSIMKVYCQICRKGDNEELLLLCDGCDKGCHTYCHRAKITTIPDGDWFCPACIAKA [P37A]	-0.056 ± 0.1
KSIMKVYCQICRKGDNEELLLLCDGCDKGCHTYCHRSKITTIPDGDWFCPACIAKA [P37S]	-0.202 ± 0.081
KSIMKVYCQICRKGDNEELLLLCDGCDKGCHTYCHRLKITTIPDGDWFCPACIAKA [P37L]	-0.177 ± 0.069
KSIMKVYCQICRKGDNEELLLLCDGCDKGCHTYCHRDKITTIPDGDWFCPACIAKA [P37D]	-0.195 ± 0.16
KSIMKVYCQICRKGDNEELLLLCDGCDKGCHTYCARPKITTIPDGDWFCPACIAKA [H35A]	0.021 ± 0.075
KSIMKVYCQICRKGDNEELLLLCDGCDKGCHTYCCRPKITTIPDGDWFCPACIAKA [H35C]	-0.084 ± 0.14
KSIMKVYCQICRKGDNEELLLLCDGCDKGCHTYCLRPKITTIPDGDWFCPACIAKA [H35L]	0.027 ± 0.065
KSIMKVYCQICRKGDNEELLLLCDGCDKGCHTYCFRPKITTIPDGDWFCPACIAKA [H35F]	-0.109 ± 0.11
KSIMKVYCQICRKGDNEELLLLCDGCDKGCHTYCMRPKITTIPDGDWFCPACIAKA [H35M]	0.002 ± 0.11
KSIMKVYCQICRKGDNEELLLLCDGCDKGCHTYCNRPKITTIPDGDWFCPACIAKA [H35N]	-0.09 ± 0.15
KSIMKVYCQICRKGDNEELLLLCDGCDKGCHTYCDRPKITTIPDGDWFCPACIAKA [H35D]	0.001 ± 0.14
KSIMKVYCQICRKGDNEELLLLCDGCDKGCHTYCWRPKITTIPDGDWFCPACIAKA [H35W]	-0.18 ± 0.091
KSIMKVYCQICRKGDNEELLLLCDGCDKGCHTYCSRPKITTIPDGDWFCPACIAKA [H35S]	-0.105 ± 0.077
KSIMKVYCQICRKGDNEELLLLCDGCDKGCHTYCIRPKITTIPDGDWFCPACIAKA [H35I]	-0.019 ± 0.19
KSIMKVYCQICRKGDNEELLLLCDGCDKGCHTYCRRPKITTIPDGDWFCPACIAKA [H35R]	-0.137 ± 0.073
KSIMKVYCQICRKGDNEELLLLCDGCDKGCHTYCQRPKITTIPDGDWFCPACIAKA [H35Q]	-0.09 ± 0.097
KSIMKVYCQICRKGDNEELLLLCDGCDKGCHTYCGRPKITTIPDGDWFCPACIAKA [H35G]	-0.102 ± 0.075
KSIMKVYCQICRKGDNEELLLLCDGCDKGCHTYCERPKITTIPDGDWFCPACIAKA [H35E]	-0.169 ± 0.093
KSIMKVYCQICRKGDNEELLLLCDGCDKGCHTYCYRPKITTIPDGDWFCPACIAKA [H35Y]	-0.201 ± 0.1
KSIMKVYCQICRKGDNEELLLLCDGCDKGCHTYCPRPKITTIPDGDWFCPACIAKA [H35P]	-0.093 ± 0.11
KSIMKVYCQICRKGDNEELLLLCDGCDKGCHTYCVRPKITTIPDGDWFCPACIAKA [H35V]	-0.052 ± 0.083
KSIMKVYCQICRKGDNEELLLLCDGCDKGCHTYCKRPKITTIPDGDWFCPACIAKA [H35K]	0.024 ± 0.12
